In patent US7939307B2, “Deletion mutant of multi-copper oxidase and its use in dyeing” (National University Corporation Kanazawa University, priority 2005, dated 2011):

Key:
[1] = Oxidative polymerization activity for representative substrates of laccase (Test Example 1); assay type: biochemical; settings: pH 5.5
Protocol: 2,6-dimethoxyphenol, p-phenylenediamine, 2,2′-azino-bis(3-ethylbenzothiazoline-6-sulfonate) (ABTS), 2-methoxyphenol, and catechol were dissolved in an ion-exchange distilled water, respectively, to each give a 50 mM aqueous solution.
4-hydroxyindole and p-aminophenol were dissolved in dimethylsulfoxide (DMSO), respectively, to each give a 50 mM DMSO solution.
o-aminophenol was dissolved in DMSO, and then dissolved in an ion-exchange distilled water, to give a 50 mM DMSO (10%)-aqueous solution.
1-nitroso-2-naphthol-3,6-disulfonic acid disodium (NNS) was dissolved in an ion-exchange distilled water to give a 5 mM aqueous solution.
Bilirubin was dissolved in DMSO to give a 0.5 mM DMSO solution.
Syringaldazine was dissolved in ethanol to give a 5 mM ethanol solution.
L-tyrosine was dissolved in a 0.1 M phosphate buffer solution (pH 6.5), to give a 1 mM solution.
(§1) For the following method, an acetate buffer solution (pH 5.5) was used as the buffer solution.
For the substrates other than NNS and bilirubin, 0.88 mL of a 0.1 M buffer solution and 0.1 mL of the substrate solution were mixed in a cuvette (1.5 mL UV disposable cell, […], and mixed by inversion. The change in absorbance at each wavelength (measurement wavelength shown in Table 1) from 0 to 30 seconds was measured using a spectrophotometer (UV-2459, manufactured by SHIMADZU).
(§2) For NNS and bilirubin, 0.96 mL of a 0.1 M buffer solution and 0.02 mL of the substrate solution were mixed in a cuvette (1.5 mL UV disposable cell, manufactured by TOP), 0.02 mL of an aqueous solution of mCueO (1) was added thereto, and mixed by inversion. The change in absorbance at each wavelength (measurement wavelength shown in Table 1) from 0 to 30 seconds was measured using a spectrophotometer (UV-2459, manufactured by SHIMADZU).
For comparison, the oxidative polymerization activity of an enzyme prepared by adding a histidine tag to the C-terminus of wild-type mature CueO (SEQ ID NO: 8, hereinafter, simply referred to as ‘wild-type CueO’) was measured in the same manner. […] The change in absorbance in 30 seconds which is measured in the above manner was given in terms of change in absorbance in 1 minute (same applies below).

[2] = Oxidative polymerization activity for various substrates (Test Example 2); assay type: biochemical; settings: pH 5.5
Protocol: For substrates other than catechin, lignin (derived from rice), and lignin (derived from conifer), each substrate was dissolved in DMSO, and then dissolved in an ion-exchange water, to give a 1 mM DMSO (1.0%) aqueous solution.
For catechin, lignin (derived from rice), and lignin (derived from conifer), each substrate was dissolved in DMSO, and then dissolved in an ion-exchange distilled water, to give a 2 mg/mL DMSO (1.0%) aqueous solution.
as §1
as §2, with “0.88 mL” for “For NNS and bilirubin, 0.96 mL”, “and 0.1” for “and 0.02”, “cuvette (1.0” for “cuvette (1.5”, “mL quartz” for “mL UV disposable”, “by SHIMADZU),” for “by TOP),”, “Table 2)” for “Table 1)”
For comparison, the oxidative polymerization activity of wild-type CueO was measured in the same manner.

[3] = substrate o-Aminophenol, 420 nm
[4] = substrate p-Phenylenediamine, 470 nm

B1: Wild-type CueO: enzyme prepared by adding a histidine tag to the C-terminus of wild-type mature CueO derived from Escherichia coli (protein, listed as Escherichia coli)
chain: MQRRDFLKYSVALGVASALPLWSRAVFAAERPTLPIPDLLTTDARNRIQLTIGAGQSTFGGKTATTWGYNGNLLGPAVKLQRGKAVTVDIYNQLTEETTLHWHGLEVPGEVDGGPQGIIPPGGKRSVTLNVDQPAATCWFHPHQHGKTGRQVAMGLAGLVVIEDDEILKLMLPKQWGIDDVPVIVQDKKFSADGQIDYQLDVMTAAVGWFGDTLLTNGAIYPQHAAPRGWLRLRLLNGCNARSLNFATSDNRPLYVIASDGGLLPEPVKVSELPVLMGERFEVLVEVNDNKPFDLVTLPVSQMGMAIAPFDKPHPVMRIQPIAISASGALPDTLSSLPALPSLEGLTVRKLQLSMDPMLDMMGMQMLMEKYGDQAMAGMDHSQMMGHMGHGNMNHMNHGGKFDFHHANKINGQAFDMNKPMFAAAKGQYERWVISGVGDMMLHPFHIHGTQFRILSENGKPPAAHRAGWKDTVKVEGNVSEVLVKFNHDAPKEHAYMAHCHLLEHEDTGMMLGFTV
[1]; substrate 2-Methoxyphenol, 470 nm
  Activity (U): 0.00 U
[1]; substrate ABTS, 420 nm
  Activity (U): 40.22 U
[1]; substrate Bilirubin, 530 nm
  Activity (U): 0.53 U
[1]; substrate Catechol, 400 nm
  Activity (U): 0.00 U
[1]; substrate L-Tyrosine, 490 nm
  Activity (U): 0.00 U
[1]; substrate NNS, 490 nm
  Activity (U): 0.00 U
[1]; substrate Syringaldazine, 530 nm
  Activity (U): 4.73 U
[1]; [3]
  Activity (U): 14.06 U
[1]; substrate p-Aminophenol, 400 nm
  Activity (U): 3.37 U
[1]; [4]
  Activity (U): 9.70 U
[2]; substrate 1,3-Dihydroxynaphthalene, 450 nm
  Activity (U): 2.53 U
[2]; substrate 1,5-Dihydroxynaphthalene, 470 nm
  Activity (U): 0.78 U
[2]; substrate 1-Naphthol, 405 nm
  Activity (U): 0.00 U
[2]; substrate 2,4-Diaminophenol dihydrochloride, 470 nm
  Activity (U): 69.83 U
[2]; substrate 2,5-Diaminotoluene sulfate, 470 nm
  Activity (U): 44.55 U
[2]; substrate 2,6-Dihydroxynaphthalene, 405 nm
  Activity (U): 0.00 U
[2]; substrate 2,6-Dimethoxy-4-metylphenol, 405 nm
  Activity (U): 0.00 U
[2]; substrate 2,6-Dimethoxyphenol, 470 nm
  Activity (U): 1.43 U
[2]; substrate 2-Chloro-1,4-phenylenediamine, 450 nm
  Activity (U): 3.10 U
[2]; substrate 2-Methoxyphenol, 450 nm
  Activity (U): 0.00 U
[2]; substrate 4-Hydroxyindole, 405 nm
  Activity (U): 3.33 U
[2]; substrate 5-Aminoorthocresol, 405 nm
  Activity (U): 0.00 U
[2]; substrate 5-Hydroxyindole, 405 nm
  Activity (U): 0.00 U
[2]; substrate Catechin, 405 nm
  Activity (U): 0.00 U
[2]; substrate Catechol, 405 nm
  Activity (U): 0.00 U
[2]; substrate Gallic acid, 405 nm
  Activity (U): 1.78 U
[2]; substrate Hydroquinone, 405 nm
  Activity (U): 0.00 U
[2]; substrate Lignin (derived from conifer), 450 nm
  Activity (U): 0.00 U
[2]; substrate Lignin (derived from rice), 450 nm
  Activity (U): 0.00 U
[2]; substrate N,N-Dimethyl-p-phenylenediamine, 470 nm
  Activity (U): 59.35 U
[2]; substrate Propyl gallate, 405 nm
  Activity (U): 0.00 U
[2]; substrate Protocatechuic acid, 405 nm
  Activity (U): 0.00 U
[2]; substrate Pyrogallol, 405 nm
  Activity (U): 9.44 U
[2]; substrate Resorcinol, 405 nm
  Activity (U): 0.00 U
[2]; substrate Tolylene-3,4-diamine, 470 nm
  Activity (U): 0.00 U
[2]; substrate Trimethylhydroquinone, 405 nm
  Activity (U): 0.00 U
[2]; substrate m-Aminophenol, 405 nm
  Activity (U): 0.00 U
[2]; substrate m-Phenylenediamine, 405 nm
  Activity (U): 0.00 U
[2]; [3]
  Activity (U): 14.06 U
[2]; substrate o-Phenylenediamine, 430 nm
  Activity (U): 0.00 U
[2]; substrate p-Aminodiphenylamine, 470 nm
  Activity (U): 48.86 U
[2]; substrate p-Aminophenol, 405 nm
  Activity (U): 3.37 U
[2]; substrate p-Methylaminophenol sulfate, 470 nm
  Activity (U): 6.51 U
[2]; [4]
  Activity (U): 19.55 U
